Series [1] deals with GabR (Cg0565), PucR-type transcriptional regulator of Corynebacterium glutamicum (Corynebacterium glutamicum ATCC 13032). The experiment in a line: SEC; Tag-free GabR on Superdex 200 Increase 10/300 GL, 100 mM phosphate buffer pH 7.0 with 1 mM DTT, 0.75 mL/min; native size from a calibration curve (Kav versus log Mr) of standard proteins; apparent mass 420 kDa against a theoretical monomer mass of 55.75 kDa. (In general: SEC sorts molecules by how far they enter the pores of the column.)

The target in series [2] is T1, GabR (Corynebacterium glutamicum WT, UniProt Q8NT36 1-504).
T1 sequence: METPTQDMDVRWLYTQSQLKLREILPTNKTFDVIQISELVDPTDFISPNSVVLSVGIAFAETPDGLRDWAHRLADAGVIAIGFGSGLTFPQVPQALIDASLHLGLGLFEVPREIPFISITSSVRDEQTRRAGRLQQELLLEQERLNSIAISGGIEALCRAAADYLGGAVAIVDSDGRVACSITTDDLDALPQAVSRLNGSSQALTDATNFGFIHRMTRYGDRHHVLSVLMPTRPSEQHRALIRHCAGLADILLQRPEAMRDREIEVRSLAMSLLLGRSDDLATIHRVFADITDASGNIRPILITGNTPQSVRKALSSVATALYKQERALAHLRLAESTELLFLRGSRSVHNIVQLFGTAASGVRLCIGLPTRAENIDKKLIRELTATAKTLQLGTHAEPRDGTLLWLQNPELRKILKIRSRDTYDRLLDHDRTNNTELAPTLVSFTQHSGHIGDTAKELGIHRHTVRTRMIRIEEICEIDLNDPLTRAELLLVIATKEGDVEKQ
In words: EMSA; complex band absent from negative control; 10 mM Tris-HCl pH 7.5, 50 mM NaCl, 5% glycerol, 0.005% Triton X-100, 20 min at room temperature; 100 ng DNA, 0-2.6 uM GabR monomer; native PAGE in TB buffer pH. The settings on record: protein: recombinant; tags: N-terminal His10 removed with TEV protease; chain copies: 8; blunt. In general terms: In EMSA bound probe runs differently from free probe, usually more slowly.

The target in series [3] is T1, GabR. In words: EMSA; reasonable binding; 10 mM Tris-HCl pH 7.5, 50 mM NaCl, 5% glycerol, 0.005% Triton X-100, 20 min at room temperature; 100 ng DNA, 0-2.6 uM GabR monomer; native PAGE in TB buffer pH. The settings on record: protein: recombinant; tags: N-terminal His10 removed with TEV protease; chain copies: 8; blunt.

This is an account of results in paper PMC7652997, “Regulation of γ-Aminobutyrate (GABA) Utilization in Corynebacterium glutamicum by the PucR-Type Transcriptional Regulator GabR and by Alternative Nitrogen and Carbon Sources”.

For “GabR (Cg0565), PucR-type transcriptional regulator of Corynebacterium glutamicum (natural protein)”, the stoichiometry N in series [1] was determined as 8.

B1: NC3 (dsDNA)
DNA 1: CACAGGAGGAACCGTGGAAGATCTCTCATAC
DNA 2: GTATGAGAGATCTTCCACGGTTCCTCCTGTG
Regarding B1, the binding result with GabR [2] is “no binding”.

B2: FS3 (dsDNA)
DNA 1: CTGTCAATTATCCATATGGGCGAAATATTGT
DNA 2: ACAATATTTCGCCCATATGGATAATTGACAG
Take B2: the binding result in the series with GabR [3] was “binds”.

The stoichiometry N is a count of units in the complex or per binding partner.
